Results from patent US20200109188A1 (AstraZeneca / MedImmune, published 2020).
Like-named read-outs stand apart in the source and are kept apart here.

Legend:
[1] = target: HA of A/Fort Monmouth/1/47 (H1N1) virus (influenza A virus); assay: cell-based or functional assay
[2] = target: HA of A/New Jersey/8/76 (H1N1) virus (influenza A virus); assay: cell-based or functional assay
[3] = target: HA of A/Kawasaki/9/86 (H1N1) virus (influenza A virus); assay: cell-based or functional assay
[4] = target: HA of ca A/Texas/36/91 (H1N1) virus (influenza A virus); assay: cell-based or functional assay
[5] = target: HA of ca A/Beijing/262/95 (H1N1) virus (influenza A virus); assay: cell-based or functional assay
[6] = target: HA of ca A/New Caledonia/20/99 (H1N1) virus (influenza A virus); assay: cell-based or functional assay
[7] = target: T1, HA of ca A/swine/Missouri/06 (H2N3) virus (influenza A virus); assay: cell-based or functional assay
[8] = target: HA of ca A/Vietnam/1203/04 (H5N1) virus (influenza A virus); assay: cell-based or functional assay
[9] = target: HA of ca A/Hong Kong/213/03 (H5N1) virus (influenza A virus); assay: cell-based or functional assay
[10] = target: T2, HA of ca A/teal/Hong Kong/W312/97 (H6N1) virus (influenza A virus); assay: cell-based or functional assay
[11] = target: T3, HA of ca A/chicken/Hong Kong/G9/97 (H9N2) virus (influenza A virus); assay: cell-based or functional assay
[12] = target: HA of A/Hong Kong/8/68 (H3N2) virus (influenza A virus); assay: cell-based or functional assay
[13] = target: T4, HA of A/Victoria/3/75 (H3N2) virus (influenza A virus, UniProt P03435 17-567); assay: cell-based or functional assay
[14] = target: HA of H3-LA87 (A/Los Angeles/7/09 (H3N2)) virus (influenza A virus); assay: cell-based or functional assay
[15] = target: HA of ca A/Sydney/5/97 (H3N2) virus (influenza A virus); assay: cell-based or functional assay
[16] = target: HA of ca A/Panama/2007/99 (H3N2) virus (influenza A virus); assay: cell-based or functional assay
[17] = target: HA of A/Wyoming/03/03 (H3N2) virus (influenza A virus); assay: cell-based or functional assay
[18] = target: HA of A/Wisconsin/67/05 (H3N2) virus (influenza A virus); assay: cell-based or functional assay
[19] = target: HA of ca A/Perth/16/09 (H3N2) virus (influenza A virus); assay: cell-based or functional assay
[20] = target: T5, HA of ca A/Netherlands/219/03 (H7N7) virus (influenza A virus); assay: cell-based or functional assay
[21] = target: T6, HA of ca A/Brit. Columbia/CN-6/04 (H7N3-LP) virus (influenza A virus); assay: cell-based or functional assay
[22] = target: HA of A/New Jersey/8/76 (H1N1) virus (influenza A virus); assay: cell-based or functional assay; remark: listed apart in the source
[23] = target: HA of A/Kawasaki/9/86 (H1N1) virus (influenza A virus); assay: cell-based or functional assay; remark: listed apart in the source
[24] = target: HA of ca A/Beijing/262/95 (H1N1) virus (influenza A virus); assay: cell-based or functional assay; remark: listed apart in the source
[25] = target: HA of H1-BS10 virus; assay: cell-based or functional assay
[26] = target: HA of ca A/Japan/57 (H2N2) virus (influenza A virus); assay: cell-based or functional assay
[27] = target: T1, HA of ca A/swine/Missouri/06 (H2N3) …; assay: cell-based or functional assay; remark: listed apart in the source
[28] = target: HA of ca A/Hong Kong/213/03 (H5N1) virus (influenza A virus); assay: cell-based or functional assay; remark: listed apart in the source
[29] = target: HA of ca A/mallard/Alberta/89/85 (H6N2) virus (influenza A virus); assay: cell-based or functional assay
[30] = target: T2, HA of ca A/teal/Hong Kong/W312/97 …; assay: cell-based or functional assay; remark: listed apart in the source
[31] = target: T3, HA of ca A/chicken/Hong Kong/G9/97 …; assay: cell-based or functional assay; remark: listed apart in the source
[32] = target: HA of A/Hong Kong/8/68 (H3N2) virus (influenza A virus); assay: cell-based or functional assay; remark: listed apart in the source
[33] = target: T4, HA of A/Victoria/3/75 (H3N2) virus; assay: cell-based or functional assay; remark: listed apart in the source
[34] = target: HA of ca A/Sydney/5/97 (H3N2) virus (influenza A virus); assay: cell-based or functional assay; remark: listed apart in the source
[35] = target: HA of A/Wisconsin/67/05 (H3N2) virus (influenza A virus); assay: cell-based or functional assay; remark: listed apart in the source
[36] = target: HA of ca A/Perth/16/09 (H3N2) virus (influenza A virus); assay: cell-based or functional assay; remark: listed apart in the source
[37] = target: HA of A/Victoria/361/11 (H3N2) virus (influenza A virus); assay: cell-based or functional assay
[38] = target: T5, HA of ca A/Netherlands/219/03 (H7N7) …; assay: cell-based or functional assay; remark: listed apart in the source
[39] = target: T6, HA of ca A/Brit. Columbia/CN-6/04 …; assay: cell-based or functional assay; remark: listed apart in the source
[40] = target: HA subtype H12 (A/duck/Alberta/60/76 (H12N5)) on HEK cells (influenza A virus, UniProt P03446 17-564); assay: flow cytometry, HA-transfected HEK cells
Sequence of HA subtype H12 (A/duck/Alberta/60/76 (H12N5)) on HEK cells (P03446 17-564): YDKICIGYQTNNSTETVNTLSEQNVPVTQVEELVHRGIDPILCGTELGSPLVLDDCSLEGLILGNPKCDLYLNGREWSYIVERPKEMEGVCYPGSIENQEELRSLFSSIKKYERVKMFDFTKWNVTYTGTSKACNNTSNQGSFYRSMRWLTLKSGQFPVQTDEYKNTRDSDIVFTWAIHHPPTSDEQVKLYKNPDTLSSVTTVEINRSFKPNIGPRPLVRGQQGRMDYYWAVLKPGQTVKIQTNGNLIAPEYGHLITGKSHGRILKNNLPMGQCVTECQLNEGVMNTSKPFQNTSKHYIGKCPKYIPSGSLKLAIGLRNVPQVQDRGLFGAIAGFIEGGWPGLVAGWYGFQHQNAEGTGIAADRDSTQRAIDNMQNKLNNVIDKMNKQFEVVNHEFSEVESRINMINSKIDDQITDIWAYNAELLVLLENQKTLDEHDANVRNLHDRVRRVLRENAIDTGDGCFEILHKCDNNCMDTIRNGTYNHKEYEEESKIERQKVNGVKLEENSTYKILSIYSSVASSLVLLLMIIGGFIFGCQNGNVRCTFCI

T4 sequence (P03435 17-567 limits assumed): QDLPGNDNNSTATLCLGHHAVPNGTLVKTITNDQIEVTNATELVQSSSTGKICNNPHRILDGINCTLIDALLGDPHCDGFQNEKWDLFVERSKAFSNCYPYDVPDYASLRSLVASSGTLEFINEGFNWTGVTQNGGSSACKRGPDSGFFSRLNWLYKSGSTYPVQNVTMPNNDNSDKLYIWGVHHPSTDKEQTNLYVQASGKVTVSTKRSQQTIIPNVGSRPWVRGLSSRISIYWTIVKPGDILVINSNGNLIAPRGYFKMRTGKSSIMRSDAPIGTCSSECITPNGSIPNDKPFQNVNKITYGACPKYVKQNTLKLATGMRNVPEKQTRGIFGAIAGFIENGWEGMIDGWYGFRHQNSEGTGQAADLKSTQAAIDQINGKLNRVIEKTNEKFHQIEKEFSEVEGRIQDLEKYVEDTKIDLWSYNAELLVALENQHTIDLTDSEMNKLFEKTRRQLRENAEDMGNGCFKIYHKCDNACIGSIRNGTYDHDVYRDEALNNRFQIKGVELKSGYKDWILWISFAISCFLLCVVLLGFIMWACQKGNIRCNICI

B1: Antibody 3 (antibody, V domains shown)
VH: QVQLQESGPGLVKPSQTLSLTCAISGDSVSSNNAVWNWIRQSPSRGLEWLGRTYYRSKWYNDYAESVKSRITVNPDTSKNQFSLHLKSVTPEDTAVFYCVRSGHITVFGVNVDAFDMWGQGTMVTVSS
VL: DIQMTQSPSSLSASVGDRVTITCRTSQSLSSYLHWYQQKPGKAPKLLIYAASSLQSGVPSRFSGSGSGTDFTLTISSLQPEDFATYYCQQSRTFGQGTKVEIK
[1]
  Neutralization IC50, H1-FM47: 0.92 µg/mL
[2]
  Neutralization IC50, H1-NJ76: 1.41 µg/mL
[3]
  Neutralization IC50, H1-Kaw86: 0.58 µg/mL
[4]
  Neutralization IC50, H1-TX91: 0.6 µg/mL
[5]
  Neutralization IC50, H1-BJ95: 3.41 µg/mL
[6]
  Neutralization IC50, H1-Ncal99: 0.79 µg/mL
[7]
  Neutralization IC50, H2-MO06: 2.27 µg/mL
[8]
  Neutralization IC50, H5-VM04: 2.11 µg/mL
[9]
  Neutralization IC50, H5-HK03: 4.64 µg/mL
[10]
  Neutralization IC50, H6-HK97: 1.77 µg/mL
[11]
  Neutralization IC50, H9-HK97: 1.79 µg/mL
[12]
  Neutralization IC50, H3-HK68: 0.68 µg/mL
[13]
  Neutralization IC50, H3-Vic75: 0.75 µg/mL
[14]
  Neutralization IC50, H3-LA87: 4.19 µg/mL
[15]
  Neutralization IC50, H3-Syd97: 3.75 µg/mL
[16]
  Neutralization IC50, H3-Pa99: 17.7 µg/mL
[17]
  Neutralization IC50, H3-Wy03: 0.63 µg/mL
[18]
  Neutralization IC50, H3-Wl05: 2.44 µg/mL
[19]
  Neutralization IC50, H3-Perth09: 1.49 µg/mL
[20]
  Neutralization IC50, H7-NLD03: 4.78 µg/mL
[21]
  Neutralization IC50, H7-BC04: 4.72 µg/mL
[22]
  Neutralization IC50, H1-NJ76: 0.57 µg/mL
[23]
  Neutralization IC50, H1-Kaw86: 1.01 µg/mL
[24]
  Neutralization IC50, H1-BJ95: 2.98 µg/mL
[25]
  Neutralization IC50, H1-BS10: 2.16 µg/mL
[26]
  Neutralization IC50, H2-JP57: 0.46 µg/mL
[27]
  Neutralization IC50, H2-MO06: 1.09 µg/mL
[28]
  Neutralization IC50, H5-HK03: 0.71 µg/mL
[29]
  Neutralization IC50, H6-AB85: 0.69 µg/mL
[30]
  Neutralization IC50, H6-HK97: 0.63 µg/mL
[31]
  Neutralization IC50, H9-HK97: 1.18 µg/mL
[32]
  Neutralization IC50, H3-HK68: 1.37 µg/mL
[33]
  Neutralization IC50, H3-Vic75: 1.12 µg/mL
[34]
  Neutralization IC50, H3-Syd97: 6.5 µg/mL
[35]
  Neutralization IC50, H3-Wl05: 2.62 µg/mL
[36]
  Neutralization IC50, H3-Perth09: 1.3 µg/mL
[37]
  Neutralization IC50, H3-VC11: 3.4 µg/mL
[38]
  Neutralization IC50, H7-NLD03: 4.74 µg/mL
[39]
  Neutralization IC50, H7-BC04: 2.95 µg/mL
[40]
  binding result: no binding (tested: 5 ug/ml)
